Data: FireProtDB (doi:10.1021/bi035651x)
Several values for one entry are separate records, joined by “and”; a condition that tells them apart may be missing. Identical values can stand only once.

Settings: Mus musculus, pH 7.4, 20 °C, Urea, Tris-HCl 20 mM, whole UniProt chain shown

B1: Adenosine deaminase wild type, P03958 (protein)
chain: MAQTPAFNKPKVELHVHLDGAIKPETILYFGKKRGIALPADTVEELRNIIGMDKPLSLPGFLAKFDYYMPVIAGCREAIKRIAYEFVEMKAKEGVVYVEVRYSPHLLANSKVDPMPWNQTEGDVTPDDVVDLVNQGLQEGEQAFGIKVRSILCCMRHQPSWSLEVLELCKKYNQKTVVAMDLAGDETIEGSSLFPGHVEAYEGAVKNGIHRTVHAGEVGSPEVVREAVDILKTERVGHGYHTIEDEALYNRLLKENMHFEVCPWSSYLTGAWDPKTTHAVVRFKNDKANYSLNTDDPLIFKSTLDTDYQMTKKDMGFTEEEFKRLNINAAKSSFLPEEEKKELLERLYREYQ
denaturant m value (CD): 0.89 kcal/mol/M and 0.77 kcal/mol/M
denaturant midpoint (higher = more stable) (CD): 6.15 M and 5.77 M
unfolding free energy (CD): 5.47 kcal/mol and 4.44 kcal/mol
denaturant m value (Fluorescence): 0.85 kcal/mol/M
denaturant midpoint (higher = more stable) (Fluorescence): 6.08 M and 5.73 M
unfolding free energy (Fluorescence): 5.17 kcal/mol and 4.87 kcal/mol
